In publication PMC9482650, “Quantitative fragmentomics allow affinity mapping of interactomes” (Nature Communications, 2022):

How the values were obtained:
Assay in all cases: holdup assay
Parameters in all cases: key: below the threshold = too weak to quantify, mostly under pKd 3.1 to 4
Settings in all cases: plain residues with an end cap or a label only (N-terminal biotin on a linker: ado-ado)
DLG1_1, Q12959 = target: DLG1_1, Q12959
NHERF2_2, Q15599 = target: NHERF2_2, Q15599
SIPA1L2, Q9P2F8 = target: T1, SIPA1L2, Q9P2F8
T1 sequence (Q9P2F8 945-1036, limits assumed, looked up): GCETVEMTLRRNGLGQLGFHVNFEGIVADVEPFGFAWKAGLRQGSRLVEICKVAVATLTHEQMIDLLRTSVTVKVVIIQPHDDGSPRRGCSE

MAST1, Q9Y2H9 = target: MAST1, Q9Y2H9
MPP6, Q9NZW5 = target: T2, MPP6, Q9NZW5
T2 sequence (Q9NZW5 125-219, limits assumed, looked up): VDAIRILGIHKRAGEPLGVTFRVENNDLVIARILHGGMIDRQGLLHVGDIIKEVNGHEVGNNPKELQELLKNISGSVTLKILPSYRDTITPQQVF

GRID2IP_2, A4D2P6 = target: GRID2IP_2, A4D2P6
PCLO, Q9Y6V0 = target: T3, PCLO, Q9Y6V0
T3 sequence (Q9Y6V0 4491-4600, limits assumed, looked up): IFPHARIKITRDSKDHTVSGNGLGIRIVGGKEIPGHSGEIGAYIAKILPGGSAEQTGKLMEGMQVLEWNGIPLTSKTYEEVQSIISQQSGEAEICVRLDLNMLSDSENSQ

LIN7A, O14910 = target: T4, LIN7A, O14910
T4 sequence (O14910 103-200, limits assumed, looked up): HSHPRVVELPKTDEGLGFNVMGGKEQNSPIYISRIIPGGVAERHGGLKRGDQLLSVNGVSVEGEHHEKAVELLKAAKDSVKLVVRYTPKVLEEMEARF

HTRA2, O43464 = target: HTRA2, O43464
MAGI2_2, Q86UL8 = target: MAGI2_2, Q86UL8
FRMPD3, Q5JV73 = target: FRMPD3, Q5JV73
DLG3_1, Q92796 = target: T5, DLG3_1, Q92796
T5 sequence (Q92796 125-227, limits assumed, looked up): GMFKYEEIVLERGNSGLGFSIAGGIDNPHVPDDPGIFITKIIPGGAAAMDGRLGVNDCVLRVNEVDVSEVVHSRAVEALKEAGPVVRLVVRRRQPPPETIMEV

DLG1_2, Q12959 = target: DLG1_2, Q12959
DLG1_3, Q12959 = target: DLG1_3, Q12959
NHERF3_4, Q5T2W1 = target: T6, NHERF3_4, Q5T2W1
T6 sequence (Q5T2W1 373-468, limits assumed, looked up): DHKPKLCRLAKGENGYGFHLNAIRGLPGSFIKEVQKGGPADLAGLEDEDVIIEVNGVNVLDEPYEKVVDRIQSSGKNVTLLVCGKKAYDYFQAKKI

DFNB31_3, Q9P202 = target: T7, DFNB31_3, Q9P202
T7 sequence (Q9P202 811-907, limits assumed, looked up): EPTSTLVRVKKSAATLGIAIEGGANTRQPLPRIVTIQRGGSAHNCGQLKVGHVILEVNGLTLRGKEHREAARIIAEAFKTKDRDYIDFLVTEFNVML

GOPC, Q9HD26 = target: GOPC, Q9HD26
MPDZ_5, O75970 = target: T8, MPDZ_5, O75970
T8 sequence (O75970 695-796, limits assumed, looked up): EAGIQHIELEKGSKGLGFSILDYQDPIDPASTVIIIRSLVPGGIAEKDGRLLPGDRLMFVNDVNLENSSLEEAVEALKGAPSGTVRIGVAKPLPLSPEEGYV

GRASP, Q7Z6J2 = target: GRASP, Q7Z6J2
GRIP2_6, Q9C0E4 = target: GRIP2_6, Q9C0E4
IL16_3, Q14005 = target: IL16_3, Q14005
FRMPD2_3, Q68DX3 = target: FRMPD2_3, Q68DX3
GRIP2_5, Q9C0E4 = target: GRIP2_5, Q9C0E4
CASK, O14936 = target: CASK, O14936
PDZD2_2, O15018 = target: T9, PDZD2_2, O15018
T9 sequence (O15018 329-429, limits assumed, looked up): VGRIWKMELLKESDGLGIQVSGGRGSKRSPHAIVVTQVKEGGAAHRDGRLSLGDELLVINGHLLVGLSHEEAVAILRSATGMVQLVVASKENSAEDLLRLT

NHERF3_1, Q5T2W1 = target: T10, NHERF3_1, Q5T2W1
T10 sequence (Q5T2W1 4-100, limits assumed, looked up): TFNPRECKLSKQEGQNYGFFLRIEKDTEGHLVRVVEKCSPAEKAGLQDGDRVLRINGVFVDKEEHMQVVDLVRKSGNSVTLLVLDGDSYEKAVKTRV

SNTA1, Q13424 = target: T11, SNTA1, Q13424
T11 sequence (Q13424 82-180, limits assumed, looked up): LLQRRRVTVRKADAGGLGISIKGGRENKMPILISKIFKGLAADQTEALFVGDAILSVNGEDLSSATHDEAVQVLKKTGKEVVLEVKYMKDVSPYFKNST

Sequence of HTRA2, O43464 (O43464 355-458): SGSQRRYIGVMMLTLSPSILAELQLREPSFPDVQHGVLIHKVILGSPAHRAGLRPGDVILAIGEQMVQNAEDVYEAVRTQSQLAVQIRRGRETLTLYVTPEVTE
Sequence of CASK, O14936 (O14936 487-570): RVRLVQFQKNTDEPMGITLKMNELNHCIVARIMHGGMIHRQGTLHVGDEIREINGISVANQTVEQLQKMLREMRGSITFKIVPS
Sequence of FRMPD2_3, Q68DX3 (Q68DX3 1073-1166): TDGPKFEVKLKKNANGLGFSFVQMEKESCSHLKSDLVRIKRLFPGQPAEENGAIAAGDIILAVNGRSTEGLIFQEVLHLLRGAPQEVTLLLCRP
Sequence of NHERF2_2, Q15599 (Q15599 142-238): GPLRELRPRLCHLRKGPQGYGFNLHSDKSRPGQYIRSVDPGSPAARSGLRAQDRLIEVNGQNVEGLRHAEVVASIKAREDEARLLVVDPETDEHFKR
Sequence of GRID2IP_2, A4D2P6 (A4D2P6 272-370): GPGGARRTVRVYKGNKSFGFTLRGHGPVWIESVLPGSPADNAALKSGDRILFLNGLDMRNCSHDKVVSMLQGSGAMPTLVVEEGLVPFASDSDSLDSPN
Sequence of MAST1, Q9Y2H9 (Q9Y2H9 962-1065): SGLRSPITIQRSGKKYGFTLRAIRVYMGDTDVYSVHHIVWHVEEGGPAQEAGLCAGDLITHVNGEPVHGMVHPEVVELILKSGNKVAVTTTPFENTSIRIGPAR
Sequence of MAGI2_2, Q86UL8 (Q86UL8 410-522): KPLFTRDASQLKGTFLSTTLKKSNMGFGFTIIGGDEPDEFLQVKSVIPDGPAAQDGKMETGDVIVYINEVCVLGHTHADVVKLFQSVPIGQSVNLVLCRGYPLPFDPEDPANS
Sequence of FRMPD3, Q5JV73 (Q5JV73 12-100): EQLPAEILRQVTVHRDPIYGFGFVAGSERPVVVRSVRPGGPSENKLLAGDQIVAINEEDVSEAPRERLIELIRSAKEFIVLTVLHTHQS
Sequence of GRIP2_5, Q9C0E4 (Q9C0E4 544-642): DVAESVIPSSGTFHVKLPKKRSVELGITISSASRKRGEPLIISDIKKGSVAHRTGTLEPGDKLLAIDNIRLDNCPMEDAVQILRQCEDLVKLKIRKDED
Sequence of GRASP, Q7Z6J2 (Q7Z6J2 96-193): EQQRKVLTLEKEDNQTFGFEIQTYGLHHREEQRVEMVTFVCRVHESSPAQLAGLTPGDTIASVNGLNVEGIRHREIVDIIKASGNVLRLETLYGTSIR
Sequence of IL16_3, Q14005 (Q14005 1107-1207): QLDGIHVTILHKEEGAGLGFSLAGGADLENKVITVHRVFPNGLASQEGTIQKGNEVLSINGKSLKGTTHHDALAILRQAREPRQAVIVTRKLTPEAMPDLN
Sequence of GRIP2_6, Q9C0E4 (Q9C0E4 648-740): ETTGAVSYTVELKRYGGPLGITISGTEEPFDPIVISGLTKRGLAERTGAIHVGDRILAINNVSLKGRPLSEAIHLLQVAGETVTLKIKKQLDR

B1: SEMA4F, O95754 (peptide)
chain: PLATCDETSI
For B1, the pKd (DLG1_1, Q12959) was 3.59, the pKd (NHERF2_2, Q15599) was 4.31 and the pKd (SIPA1L2, Q9P2F8) was “below the threshold”. The pKd (MAST1, Q9Y2H9) was 4.64, the pKd (MPP6, Q9NZW5) was “below the threshold” and the pKd (GRID2IP_2, A4D2P6) was “below the threshold”. The pKd (PCLO, Q9Y6V0) was “below the threshold”, the pKd (LIN7A, O14910) was “below the threshold” and the pKd (HTRA2, O43464) was “below the threshold”. The pKd (MAGI2_2, Q86UL8) was “below the threshold”, the pKd (FRMPD3, Q5JV73) was “below the threshold” and the pKd (DLG3_1, Q92796) was “below the threshold”. For the same binder, the pKd (DLG1_2, Q12959) was 3.92, the pKd (DLG1_3, Q12959) was “below the threshold” and the pKd (NHERF3_4, Q5T2W1) was “below the threshold”. For the same binder, the pKd (DFNB31_3, Q9P202) was 3.7, the pKd (GOPC, Q9HD26) was “below the threshold” and the pKd (MPDZ_5, O75970) was “below the threshold”. For the same binder, the pKd (GRASP, Q7Z6J2) was “below the threshold”, the pKd (GRIP2_6, Q9C0E4) was “below the threshold” and the pKd (IL16_3, Q14005) was “below the threshold”. The pKd (FRMPD2_3, Q68DX3) was “below the threshold”, the pKd (GRIP2_5, Q9C0E4) was “below the threshold” and the pKd (CASK, O14936) was “below the threshold”. The pKd (PDZD2_2, O15018) was 4.47, the pKd (NHERF3_1, Q5T2W1) was 3.74 and the pKd (SNTA1, Q13424) was 4.01.

B2: GUCY1A2, P33402 (peptide)
chain: GTMFLRETSL
With B2 the pKd (DLG1_1, Q12959) was 4.23, the pKd (NHERF2_2, Q15599) was 4.56 and the pKd (SIPA1L2, Q9P2F8) was “below the threshold”. The pKd (MAST1, Q9Y2H9) was 5.08, the pKd (MPP6, Q9NZW5) was “below the threshold” and the pKd (GRID2IP_2, A4D2P6) was 4.62. For the same binder, the pKd (PCLO, Q9Y6V0) was “below the threshold”, the pKd (LIN7A, O14910) was 4.35 and the pKd (HTRA2, O43464) was “below the threshold”. The pKd (MAGI2_2, Q86UL8) was 4.29, the pKd (FRMPD3, Q5JV73) was “below the threshold” and the pKd (DLG3_1, Q92796) was “below the threshold”. It also gave a pKd (DLG1_2, Q12959) of 4.81, a pKd (DLG1_3, Q12959) of 5.09 and a pKd (NHERF3_4, Q5T2W1) of 4.38. The pKd (DFNB31_3, Q9P202) was 3.5, the pKd (GOPC, Q9HD26) was 4.43 and the pKd (MPDZ_5, O75970) was “below the threshold”. The pKd (GRASP, Q7Z6J2) was 4.73, the pKd (GRIP2_6, Q9C0E4) was “below the threshold” and the pKd (IL16_3, Q14005) was “below the threshold”. For the same binder, the pKd (FRMPD2_3, Q68DX3) was “below the threshold”, the pKd (GRIP2_5, Q9C0E4) was “below the threshold” and the pKd (CASK, O14936) was “below the threshold”. For the same binder, the pKd (PDZD2_2, O15018) was “below the threshold”, the pKd (NHERF3_1, Q5T2W1) was 5.64 and the pKd (SNTA1, Q13424) was 5.64.

B3: PRLHR, P49683 (peptide)
chain: GQNMTVSVVI
For B3, the pKd (DLG1_1, Q12959) was “below the threshold”, the pKd (NHERF2_2, Q15599) was 3.69 and the pKd (SIPA1L2, Q9P2F8) was 3.54. For the same binder, the pKd (MAST1, Q9Y2H9) was 3.9, the pKd (MPP6, Q9NZW5) was 3.71 and the pKd (GRID2IP_2, A4D2P6) was “below the threshold”. The pKd (PCLO, Q9Y6V0) was “below the threshold”, the pKd (LIN7A, O14910) was “below the threshold” and the pKd (HTRA2, O43464) was “below the threshold”. The pKd (MAGI2_2, Q86UL8) was “below the threshold”, the pKd (FRMPD3, Q5JV73) was “below the threshold” and the pKd (DLG3_1, Q92796) was “below the threshold”. For the same binder, the pKd (DLG1_2, Q12959) was “below the threshold”, the pKd (DLG1_3, Q12959) was “below the threshold” and the pKd (NHERF3_4, Q5T2W1) was 3.73. The pKd (DFNB31_3, Q9P202) was 4.21, the pKd (GOPC, Q9HD26) was “below the threshold” and the pKd (MPDZ_5, O75970) was “below the threshold”. For the same binder, the pKd (GRASP, Q7Z6J2) was “below the threshold”, the pKd (GRIP2_6, Q9C0E4) was 4.15 and the pKd (IL16_3, Q14005) was “below the threshold”. The pKd (FRMPD2_3, Q68DX3) was “below the threshold”, the pKd (GRIP2_5, Q9C0E4) was “below the threshold” and the pKd (CASK, O14936) was “below the threshold”. For the same binder, the pKd (PDZD2_2, O15018) was “below the threshold”, the pKd (NHERF3_1, Q5T2W1) was “below the threshold” and the pKd (SNTA1, Q13424) was 3.89.

B4: SLC15A2, Q16348 (peptide)
chain: IKLETKKTKL
In the case of B4, the pKd (DLG1_1, Q12959) is reported as “below the threshold”, the pKd (NHERF2_2, Q15599) is reported as 4.32 and the pKd (SIPA1L2, Q9P2F8) is reported as 3.62. For the same binder, the pKd (MAST1, Q9Y2H9) was 4.86, the pKd (MPP6, Q9NZW5) was “below the threshold” and the pKd (GRID2IP_2, A4D2P6) was 4.71. The pKd (PCLO, Q9Y6V0) was “below the threshold”, the pKd (LIN7A, O14910) was “below the threshold” and the pKd (HTRA2, O43464) was 3.52. For the same binder, the pKd (MAGI2_2, Q86UL8) was 3.47, the pKd (FRMPD3, Q5JV73) was “below the threshold” and the pKd (DLG3_1, Q92796) was 3.69. The pKd (DLG1_2, Q12959) was “below the threshold”, the pKd (DLG1_3, Q12959) was 3.97 and the pKd (NHERF3_4, Q5T2W1) was 4.77. The pKd (DFNB31_3, Q9P202) was 4.16, the pKd (GOPC, Q9HD26) was 4.29 and the pKd (MPDZ_5, O75970) was “below the threshold”. The pKd (GRASP, Q7Z6J2) was 4.42, the pKd (GRIP2_6, Q9C0E4) was 3.48 and the pKd (IL16_3, Q14005) was “below the threshold”. The pKd (FRMPD2_3, Q68DX3) was “below the threshold”, the pKd (GRIP2_5, Q9C0E4) was 3.58 and the pKd (CASK, O14936) was “below the threshold”. For the same binder, the pKd (PDZD2_2, O15018) was “below the threshold”, the pKd (NHERF3_1, Q5T2W1) was 4.7 and the pKd (SNTA1, Q13424) was 3.59.

B5: TBPL1, P62380 (peptide)
chain: FVFESRKEIL
B5 was tested, and the pKd (DLG1_1, Q12959) was “below the threshold”, the pKd (NHERF2_2, Q15599) was “below the threshold” and the pKd (SIPA1L2, Q9P2F8) was “below the threshold”. The pKd (MAST1, Q9Y2H9) was 4.21, the pKd (MPP6, Q9NZW5) was 3.53 and the pKd (GRID2IP_2, A4D2P6) was “below the threshold”. The pKd (PCLO, Q9Y6V0) was “below the threshold”, the pKd (LIN7A, O14910) was “below the threshold” and the pKd (HTRA2, O43464) was “below the threshold”. The pKd (MAGI2_2, Q86UL8) was “below the threshold”, the pKd (FRMPD3, Q5JV73) was “below the threshold” and the pKd (DLG3_1, Q92796) was “below the threshold”. The pKd (DLG1_2, Q12959) was “below the threshold”, the pKd (DLG1_3, Q12959) was “below the threshold” and the pKd (NHERF3_4, Q5T2W1) was “below the threshold”. For the same binder, the pKd (DFNB31_3, Q9P202) was “below the threshold”, the pKd (GOPC, Q9HD26) was “below the threshold” and the pKd (MPDZ_5, O75970) was “below the threshold”. For the same binder, the pKd (GRASP, Q7Z6J2) was 4.72, the pKd (GRIP2_6, Q9C0E4) was “below the threshold” and the pKd (IL16_3, Q14005) was “below the threshold”. The pKd (FRMPD2_3, Q68DX3) was “below the threshold”, the pKd (GRIP2_5, Q9C0E4) was “below the threshold” and the pKd (CASK, O14936) was “below the threshold”. The pKd (PDZD2_2, O15018) was “below the threshold”, the pKd (NHERF3_1, Q5T2W1) was “below the threshold” and the pKd (SNTA1, Q13424) was “below the threshold”.
